Test results as given in the supplement of paper PMC9170038.

Test system: K4 kissing-loop RNA reporter
Assay: apparent KD of K4 kissing-loop reporter; higher = weaker reporter binding
Conditions: Eterna round: R107; input ligand: FMN 200 uM
Procedure: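 RNA-MaP round R107: designed RNA switches with theophylline, tryptophan, arginine or FMN aptamers are transcribed on-chip within common flanks. They are titrated with a labelled K4 kissing-loop RNA reporter in RNA-MaP buffer (100 mM Tris pH 7.5, 80 mM KCl, 4 mM MgCl2), without ligand or with the indicated ligand. Median apparent KD per design.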
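Further: bound reporter read as fluorescence of individual clusters on recovered sequencing chips by microscopy, with normalized cluster intensities fitted with a binding model.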

| Sequence | apparent KD of K4 kissing-loop reporter [µM] |
| --- | --- |
| GAUUCUAGCGAAAGUGAUGUUUUCGAGGAUACCAGUGCCACUUGACACCCUUGGCAGCCUACCCGUCAUCACAAGUGGCGUUAAA [theeternabot_exclusion_KL_Theo_A_28] | 0.136 |
| AGGAUCCGUCGACAAAAGUCGACAUAAUCCGAGGAUAUGACGAAAGUCAGAAGGUGGACAUAAGUCCAGUGAUGUUGGAGGAUCC [FmnA 17 #SwitchBubble #K4Late] | 0.847 |
| GCAGUGAUGUUGCGGAUGUACAGUGGCGUGCGAGGACCGGUACGGCCGCCACUCGUACAGAGCAAGCUAAUACAUCGAUAGGUGA [whbob_SS_Tryp_A_m4] | 0.436 |
| AAGCAGUCCCUUGUUGUCAUCGAAGAUGAACGAGGACCGGUACGGCCGCCACUCGGAGUGAUGUUCCGAAGGCUGCAAAAUAAAA [MatMod 20 - Jieux - Exclusion - Tryptophan A] | 0.109 |
| CCAUCGCUAUUCGAUACCAGUCAGGAGGUCUUUGGCCUCCUAAUGGAGUGAUGUUCCUUAGACCCUUGGCAGCGAAUAGUGAUGG [Theophylline B K4 14] | 0.63 |
| AUGGUAUUGCGAGGAUAUCCUUCCCACGUCGAAGUACCGUGCUUGAUGGAGUGAUGUUCGAUCAGAGGAGAAGGCGCGGUGUUAU [Same State FMN B GF22] | 0.706 |
| UAAUAUCCGUCGGCCGCCACUCACCAGUGAUGUUGGAGGAGUGAUGUUCCACGAGUGAUGUUCGAGAGGACCGGGACGGACGAUG [6th] | 0.134 |
| UGAUACCAGACGGCCGCCACUCCUAGUGAUGUUAGGAACCUAAAAUAGCAUGUCAAAGACAUGCGGAGGACCGGGUCUGGUAUCU [TrypBX 23 #SwitchBubble #Palindromic #StaticStem] | 0.111 |
| UGAUUGGCGAAAGUAGUGAUGUUACGAAUAUAGGAUAUUAGAGGAAUAAGAAGGAUAAAUGAGAAAUAGGUAAAUUGUUGGUUGG [FMN same state] | 0.101 |
| AGUGAUGUGGGAAGGAGCGGUAUAAGAAUUCAGUGAUGUUGAAGUGUUGCUGUAAUAAAGAGCCAGGUAGGUCGCCUAGAUGUUA [KL-XARG B30] | 0.811 |
| GAUUAAUAAGAGGAUACCAGUACUAAUAAAGUACAUUAAUAGUAGAGUGAUGUUCUAAAGUACCCUUGGCAGCUUAGAGUAAGUU [#08 K4 Theophylline B Exclusion] | 0.128 |
| ACGCUGGAUGAAUAACAUCUAGCGAAAAUUCGAGGACCGGUACGGCCGCCACUCGAGCUAACUGCGAGUGAUGUUCGAUAAUAAA [Mat - Mod of OpenEnded 3 - D6] | 0.196 |
| AGGAGUGAUGUUCCUACAUACACGGUCCGACGAGGACCGGUACGGCCGCCACUCGCGUCCCAGUGAUGUUGGGAUUUGGCGUACA [Exclusion Tryptophan A Gf 16] | 0.162 |
| GAUUUAGAGGCGGCCGCCACUAGUGAUGUUAGUGAUGUUUGAUAGGGAAUAUAUCUGCGAGUAGAUAGGACCGGGCCAGAUGGAG [eccvbmullin] | 0.192 |
| AGGCACGAGCAAGGAUAUUGAGUAGAGUGAUGUUCUGCCUGGGUUGGCUCGGAAGAGCCUUCUCAGCGAGAAGGUGCUCGUGCCU [#2 Same State - FMN A Attempt #24 (HarryS)] | 0.261 |
| GCCCGGUGAAUCCGCCAAGAUAGACACCGUCGAGGACCGGUACGGCCGCCACUCGAGUACGAGUGAUGUUCGUACGCGGUGUCGA [Onedzate] | 0.606 |

| Sequence | apparent KD of K4 kissing-loop reporter [µM] |
| --- | --- |
| GUUACGCAUGGAAGGAGCGCUCUCCGGCUUAUUAACACAGUGAUGUUGUGAUUUUGCCGAAAGCAGGUAGGUCGCCAUGUGUAAC [Ex Arginine B K4 11] | 0.487 |
| AAAUAAAUCACGGCCGCCACUGCUAGAGUGAUGUUCUAUUAAUAAUUUCUAAAUUAUAUAAUACUCAGGACCGGGUGAUUUUUAA [JR_SSTryptoB_Sub020] | 0.578 |
| UGUCAUUGGUCGGCCGCCACUUCAUAUAGAGUGAUGUUCUGAAAGACGGAUCGAAAGAUCUGUCGAAGGACCGGGACCGAUGACU [FiskerMod 12 - Jieux - Same State - Tryptophan B] | 1.1 |
| UUAUUAUAUUGUAAUGAUAUAGAAACCGAAGGAGCGACAUAAAAGUCAGGUAGGUCGCGGUGUACUCAGUGAUGUUGAGAGUAUU [JR_SSArginiA_Sub013] | 0.141 |
| AAUAAGGUCGCCGAUACCAGCGCAGGCAGAGCAAAGCUCUGCCUGGUAGUGAUGUUACCGCGCCCUUGGCAGCGGUGGCACGACC [Omei KL Theo B SS C v5] | 0.0648 |
| AUUAAUUUCAGAGGAUAUGCUUAAUUGAUUAAAUAUAAUCUAUUAUGCAGUGAUGUUGCAUUUUUUGCAGAAGGCUGAUUUAUAA [JR_SSFMNB_Sub017] | 0.136 |
| GCCUGGGCCCGAAGGAGCGCCGUGACAGGUUACUGCAUUGAGCAGUGAUGUUGCUCAAUCUGGCAGGUAGGUCGCGGGCCCAGGC | 0.12 |
| UGGAGUUGACGAAAAGUCAACUCCUGAGAUACCAGUGACGAAGGUCACCCUUGGCAGCUCACUGCUAGUGAUGUUGGAAGAUAAA [whbob_SS_Theo_A_w48] | 1.39 |
| CACGAUGAAUUCUCUAGGAGUGAUGUUUUUCGAGGACCGGUACGGCCGCCACUCGGACCAGGAGCGUGGUAGCGGCGAAAAGACU [zpmullin] | 0.769 |
| UAACUGCAGUGAUGUUGCAGAUGUCCUGACUAGGAUAUCAGGAAACUGAGAAGGAGUGCCUUCUAAACAUCACAGAAGGUGGACA [KL-SSFMN-A28] | 0.36 |
| AGUGAACGAGCGGCCGCCACUAAAUGAGUGAUGUUCGUGAGUAGUGCUGUUCUCAUGAUUGUUUUUAGGACCGGGUUCGAUGUUG [edcclmullin] | 0.937 |
| AGUUUAGAGUGACUCGAUAAGAGUCACAAACGAGGACCGGUACGGCCGCCACUCGAAAUAACGAGAGUGAUGUUCUCGCUGGGUA [FiskerMod 4 - Jieux - Same State Tryptophan A] | 0.317 |
| AGUCCUAUGACGGCCGCCACUCCGGUUAUGAUUUGCCAAGUGAUGUUUGGGUAUCAGGCGAGGCGGAGGACCGGGUCGACCUGCC [theeternabot_exclusion_KL_Trp_B_18] | 0.171 |
| UGGGAUGUUAAAGGAUAUAGAAAGUGAUAUUAGAAAGUGAGUGAUGUUGAUGUAAGUGAUGAUAUGUUAGAAGGUUAACAAAACG [abcd] | 0.431 |
| AGACUACCACACUGUCAAUAGACAGUGAACUCGGAUAUGCUGAUAAGCAGAAGGAGUGAUGUUCCGAGGUAGUCAAUAAAAUAAU [FmnAX 13 C32+G66] | 0.263 |
| AGACCCUGGUAGGAUACCAGCGGCAUGCAGUGCGAGAGAGCGUAGUGAUGUUACGAGACCCGCCCUUGGCAGCCUGGGAAUGUGU [theeternabot_exclusion_KL_Theo_B_50] | 0.0901 |

Same assay, conditions: Eterna round: R107; input ligand: arginine 13.2 mM

| Sequence | apparent KD of K4 kissing-loop reporter [µM] |
| --- | --- |
| GAUUCUAGCGAAAGUGAUGUUUUCGAGGAUACCAGUGCCACUUGACACCCUUGGCAGCCUACCCGUCAUCACAAGUGGCGUUAAA [theeternabot_exclusion_KL_Theo_A_28] | 0.114 |
| AGGAUCCGUCGACAAAAGUCGACAUAAUCCGAGGAUAUGACGAAAGUCAGAAGGUGGACAUAAGUCCAGUGAUGUUGGAGGAUCC [FmnA 17 #SwitchBubble #K4Late] | 0.218 |
| GCAGUGAUGUUGCGGAUGUACAGUGGCGUGCGAGGACCGGUACGGCCGCCACUCGUACAGAGCAAGCUAAUACAUCGAUAGGUGA [whbob_SS_Tryp_A_m4] | 0.223 |
| AAGCAGUCCCUUGUUGUCAUCGAAGAUGAACGAGGACCGGUACGGCCGCCACUCGGAGUGAUGUUCCGAAGGCUGCAAAAUAAAA [MatMod 20 - Jieux - Exclusion - Tryptophan A] | 0.112 |
| CCAUCGCUAUUCGAUACCAGUCAGGAGGUCUUUGGCCUCCUAAUGGAGUGAUGUUCCUUAGACCCUUGGCAGCGAAUAGUGAUGG [Theophylline B K4 14] | 0.171 |
| AUGGUAUUGCGAGGAUAUCCUUCCCACGUCGAAGUACCGUGCUUGAUGGAGUGAUGUUCGAUCAGAGGAGAAGGCGCGGUGUUAU [Same State FMN B GF22] | 0.368 |
| UAAUAUCCGUCGGCCGCCACUCACCAGUGAUGUUGGAGGAGUGAUGUUCCACGAGUGAUGUUCGAGAGGACCGGGACGGACGAUG [6th] | 0.114 |
| UGAUACCAGACGGCCGCCACUCCUAGUGAUGUUAGGAACCUAAAAUAGCAUGUCAAAGACAUGCGGAGGACCGGGUCUGGUAUCU [TrypBX 23 #SwitchBubble #Palindromic #StaticStem] | 0.0921 |
